# From PMC3477312, “Characterization of Vibrio cholerae Hfq Provides Novel Insights into the Role of the Hfq C-Terminal Region” (Journal of Molecular Biology, 2012)
# B1: Vibrio cholerae Hfq (natural protein)
# chain: MAKGQSLQDPFLNALRRERIPVSIYLVNGIKLQGQIESFDQFVILLKNTVNQMVYKHAISTVVPARPVSHHSGDRPASDRPAEKSEE
# notes: also called VcHfq; full-length VcHfq
# B2: VcHfq72 (domain or fragment)
# chain: MAKGQSLQDPFLNALRRERIPVSIYLVNGIKLQGQIESFDQFVILLKNTVNQMVYKHAISTVVPARPVSHHS
# notes: also called VcHfq NTD; NTD alone of VcHfq
# Columns and labels:
# [1] = target: VcNTDEcCTR (Vibrio cholerae | Escherichia coli) (UniProt Q9KV11); test: SDS-PAGE stability assay; 1 ug protein in loading buffer with 1% SDS heated at 95 °C for 0 to 300 s, 10% SDS-PAGE, hexamer and monomer bands quantified; hexamer to monomers
# [2] = target: the molecule itself; test: as above
# [3] = target: the molecule itself; test: SEC
Molecule,half-life of hexamer in 1% SDS at 95 °C [1],half-life of hexamer in 1% SDS at 95 °C [2],stoichiometry N [3]
VcNTDEcCTR (from UniProt Q9KV11 1-72; P0A6X3 73-102),39.2 s,,
B1,,33.2 ± 1.3 s,6
B2,,32.1 ± 1.9 s,
